Reference: US20230012273A1 (Boehringer Ingelheim, published 2023)
Read-outs that look alike come from different tables or passages of the source.

Legend:
[1] = biological target: T1, full-length human SIRPγ (NP_061026.2) on cells (human, UniProt Q9P1W8 29-387); assay: flow cytometry, Expi-CHO cells
T1 construct: also called CHO-hSIRPγ; γ WT
Procedure: (§1) Expi-CHO parental cells are transduced with lentiviruses containing either full-length wild-type human SIRPγ ([…]) or full-length human SIRPγ with amino acid point mutations (Table 64) and sorted to achieve matching expression levels. These cells are blocked with donkey IgG and incubated on ice with increasing concentrations of antibodies for 60 minutes, washed and stained with AF647-conjugated donkey F(ab′)₂ anti-human IgG antibodies. Stained cells are washed, fixed, and analyzed by flow cytometry. Median fluorescent intensity is determined and used as a measure of antibody binding.

[2] = biological target: T2, full-length human SIRPγ E→D on Expi-CHO cells (human, UniProt Q9P1W8 29-387); assay: flow cytometry, Expi-CHO cells
T2 construct: the entry already carries the change (PENV to PDNV)
T2 sequence (Q9P1W8 29-387 E128D): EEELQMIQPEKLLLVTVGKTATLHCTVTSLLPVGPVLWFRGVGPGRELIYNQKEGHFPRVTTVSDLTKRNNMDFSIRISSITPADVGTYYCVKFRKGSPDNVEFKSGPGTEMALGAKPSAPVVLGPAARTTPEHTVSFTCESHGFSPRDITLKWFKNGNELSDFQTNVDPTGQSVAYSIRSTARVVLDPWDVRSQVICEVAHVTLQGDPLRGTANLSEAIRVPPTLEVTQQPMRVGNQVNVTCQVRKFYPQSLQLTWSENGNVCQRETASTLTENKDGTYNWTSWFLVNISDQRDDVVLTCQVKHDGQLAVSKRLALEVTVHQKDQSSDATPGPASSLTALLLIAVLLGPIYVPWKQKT
Procedure: as §1

[3] = biological target: T1, full-length human SIRPγ (NP_061026.2) …; assay: flow cytometry, primary CD3+ T cells
Procedure: Antibody binding to primary human T cells expressing endogenous SIRPγ is evaluated by flow cytometry. Human peripheral blood mononuclear cells (PBMCs) are blocked with donkey IgG and incubated on ice with increasing concentrations of antibody for 60 minutes, washed and stained with AF647-conjugated donkey F(ab′)₂ anti-human IgG secondary reagent. […] Cells are washed, fixed, and analyzed by flow cytometry. Median fluorescent intensity of CD3+ gated population is determined and used as a measure of antibody binding.

[4] = biological target: T1, full-length human SIRPγ (NP_061026.2) …; assay: flow cytometry, CHO cells; CHO cells expressing hSIRPγ; n = 1
Procedure: Antibody binding to cells expressing human SIRPγ(NP_061026.2) is evaluated by flow cytometry. SIRPγ-expressing CHO cells are blocked with donkey IgG and incubated on ice with increasing concentrations of antibody for 60 minutes, washed and stained with AF647-conjugated donkey F(ab′)₂ anti-human IgG secondary reagent. Cells are washed, fixed, and analyzed by flow cytometry. Median fluorescent intensity is determined and used as a measure of antibody binding.

[5] = biological target: T3, full-length human SIRPγ EN→DD on Expi-CHO cells (human, UniProt Q9P1W8 29-387); assay: flow cytometry, Expi-CHO cells expressing full-length human SIRPγ EN→DD
T3 construct: the entry already carries the change (PENV to PDDV)
T3 chain: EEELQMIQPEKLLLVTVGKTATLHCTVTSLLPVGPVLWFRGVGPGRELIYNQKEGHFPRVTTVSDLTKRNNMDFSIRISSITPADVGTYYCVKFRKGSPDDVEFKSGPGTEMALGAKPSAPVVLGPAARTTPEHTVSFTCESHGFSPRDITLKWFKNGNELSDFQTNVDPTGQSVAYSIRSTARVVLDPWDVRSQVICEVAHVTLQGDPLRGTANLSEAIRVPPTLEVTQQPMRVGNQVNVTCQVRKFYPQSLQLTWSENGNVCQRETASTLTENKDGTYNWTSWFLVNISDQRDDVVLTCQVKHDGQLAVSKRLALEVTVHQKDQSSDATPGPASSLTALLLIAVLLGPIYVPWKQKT
Procedure: as §1

[6] = biological target: T4, full-length human SIRPβL (NP_001129316.1) on cells (human, UniProt Q5TFQ8 30-398); assay: flow cytometry, U937 SIRPα-KO cells expressing full-length human SIRPβL
T4 construct: one molecule for U937 SIRPα-KO transfectants (NP_001129316.1) and Expi-CHO transfectants (Q5TFQ8); also called SIRPβ1v3; βL WT
T4 sequence (Q5TFQ8 30-398): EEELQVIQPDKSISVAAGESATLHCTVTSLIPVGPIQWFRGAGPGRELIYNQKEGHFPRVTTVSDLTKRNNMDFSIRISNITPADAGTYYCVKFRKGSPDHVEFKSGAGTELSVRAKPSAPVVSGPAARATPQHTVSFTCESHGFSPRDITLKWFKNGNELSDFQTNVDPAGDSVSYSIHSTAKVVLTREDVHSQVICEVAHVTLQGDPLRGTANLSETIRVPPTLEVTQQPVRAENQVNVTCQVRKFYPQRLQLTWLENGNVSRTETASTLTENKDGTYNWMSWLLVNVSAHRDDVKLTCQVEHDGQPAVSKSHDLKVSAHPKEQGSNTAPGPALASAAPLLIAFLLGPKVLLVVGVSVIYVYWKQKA
Procedure: Antibody binding to cells expressing full-length human SIRPβ1 (NP_006056.2) and SIRPβL (NP_001129316.1) is evaluated by flow cytometry. SIRPβ1- or SIRPβL-expressing U937^{SIRPα KO} cells are blocked with donkey IgG and incubated on ice with increasing concentrations of antibodies for 60 minutes, washed and stained with AF647-conjugated donkey F(ab′)₂ anti-human IgG secondary reagent. Cells are washed, fixed, and analyzed by flow cytometry. Median fluorescent intensity is determined and used as a measure of antibody binding.

[7] = biological target: T5, human SIRPβ1 extracellular domain + His-tag (NP_006056.2) (human, UniProt O00241 30-371); assay: SPR, Ab captured, ECD-His analyte
T5 construct: also called hSIRPβ1; HuSIRPβ1
T5 sequence (O00241 other isoform, or with tags, fused parts or gaps): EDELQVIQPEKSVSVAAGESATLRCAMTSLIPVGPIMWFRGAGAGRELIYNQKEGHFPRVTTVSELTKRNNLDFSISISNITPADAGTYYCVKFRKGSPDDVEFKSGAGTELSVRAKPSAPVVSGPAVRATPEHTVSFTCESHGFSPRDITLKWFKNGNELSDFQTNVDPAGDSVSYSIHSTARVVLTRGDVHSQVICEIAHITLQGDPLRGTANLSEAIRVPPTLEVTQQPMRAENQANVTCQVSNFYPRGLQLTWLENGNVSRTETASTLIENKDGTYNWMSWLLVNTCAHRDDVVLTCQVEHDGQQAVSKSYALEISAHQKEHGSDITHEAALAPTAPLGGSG
In short: (§2)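 Steps: chip deactivated with 1M ethanolamine HCl for 420 sec at 10 μl/min; anti-SIRPα antibody captured; two-fold serial dilutions of His-tagged SIRP extracellular domain injected 300 sec at 30 μl/min; dissociation monitored 600 sec. All in 1×HBS-EP+ running buffer.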

[8] = biological target: T5, human SIRPβ1 extracellular domain + …; assay: SPR, Ab captured, ECD-His analyte; remark: listed apart in the source
In short: as §2

[9] = biological target: T6, human SIRPβL/SIRPβ1v3 extracellular domain + His-tag (NP_001129316.1) (human, UniProt Q5TFQ8 30-371); assay: SPR, Ab captured, ECD-His analyte
T6 construct: also called hSIRPβ1v3; HuSIRPβ1v3
T6 sequence (Q5TFQ8 other isoform, or with tags, fused parts or gaps): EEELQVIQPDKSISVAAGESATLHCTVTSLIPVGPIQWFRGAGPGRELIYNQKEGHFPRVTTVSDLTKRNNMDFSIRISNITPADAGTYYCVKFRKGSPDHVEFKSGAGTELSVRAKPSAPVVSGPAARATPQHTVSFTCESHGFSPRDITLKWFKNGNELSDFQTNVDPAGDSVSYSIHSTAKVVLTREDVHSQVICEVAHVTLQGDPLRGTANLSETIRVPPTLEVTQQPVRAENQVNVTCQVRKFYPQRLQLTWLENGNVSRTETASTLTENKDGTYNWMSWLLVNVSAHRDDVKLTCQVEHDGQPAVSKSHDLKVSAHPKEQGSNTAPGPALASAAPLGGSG
In short: as §2

[10] = biological target: T7, human SIRPγ extracellular domain + His-tag (NP_061026.2) (human, UniProt Q9P1W8 29-360); assay: SPR, Ab captured, ECD-His analyte
T7 construct: also called hSIRPγ; HuSIRPγ
T7 sequence (Q9P1W8 29-360): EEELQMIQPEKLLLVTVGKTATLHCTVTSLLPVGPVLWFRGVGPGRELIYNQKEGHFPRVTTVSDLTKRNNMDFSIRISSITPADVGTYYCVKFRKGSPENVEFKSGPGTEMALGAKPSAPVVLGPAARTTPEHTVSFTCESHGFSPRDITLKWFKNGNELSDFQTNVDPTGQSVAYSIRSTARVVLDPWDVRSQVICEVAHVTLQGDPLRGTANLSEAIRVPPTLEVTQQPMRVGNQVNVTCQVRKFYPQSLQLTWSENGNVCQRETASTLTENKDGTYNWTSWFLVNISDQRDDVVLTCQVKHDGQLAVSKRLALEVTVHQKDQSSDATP
In short: as §2

[11] = biological target: T4, full-length human SIRPβL …; assay: flow cytometry, Expi-CHO cells expressing full-length wild-type human SIRPβL
Procedure: Expi-CHO parental cells are transduced with lentiviruses containing either full-length wild-type human SIRPβL (Q5TFQ8) or full-length human SIRPβL with a single amino acid point mutation (Table 62) and sorted to achieve matching expression levels. These cells are blocked with donkey IgG and incubated on ice with increasing concentrations of antibodies for 60 minutes, washed and stained with AF647-conjugated donkey F(ab′)₂ anti-human IgG antibodies. Stained cells are washed, fixed, and analyzed by flow cytometry. Median fluorescent intensity is determined and used as a measure of antibody binding.
A single amino acid substitution (H→D) introduced within the loop region maintained, strengthened, or facilitated antibody binding to these cells (FIG. 34B, Table 63).

T1 sequence (Q9P1W8 29-387): as the sequence (Q9P1W8 29-387 E128D) above, with D100E counted along it

B1: Anti-SIRPα antibody KWAR23 (antibody, V domains shown)
VH: EVQLQQSGAELVKPGASVKLSCTASGFNIKDYYIHWVQQRTEQGLEWIGRIDPEDGETKYAPKFQDKATITADTSSNTAYLHLSSLTSEDTAVYYCARWGAYWGQGTLVTVSS
VL: QIVLTQSPAIMSASPGEKVTLTCSASSSVSSSYLYWYQQKPGSSPKLWIYSTSNLASGVPARFSGSGSGTSYSLTISSMEAEDAASYFCHQWSSYPRTFGAGTKLELK
B1 was tested, and the EC50 [1] was 0.113 nM, the EC50 [2] was 0.3 nM and the EC50 [3] was 0.03 nM.

B2: Antibody B (antibody, human IgG1, kappa, L234A L235A, V domains shown)
VH: QVQLVQSGAEVKKPGASVKVSCKASGYTFTGNYMHWVRQAPGQGLEWMGWINPNSGGTNYAQKFQGRVTMTRDTSISTAYMELSRLRSDDTAVYYCVSGSGWYENYYYYGMDVWGQGTTVTVSS
VL: DIQMTQSPSSVSASVGDRVTITCRASQGISSWLAWYQQKPGKAPKLLIYAESSLQSGVPSRFSGSGSGTDFTLTISSLQPEDFATYYCQQANSFPLTFGGGTKVEIKR
In the case of B2, the EC50 [4] is reported as 11.8 nM.

B3: Antibody E (antibody, human IgG1, kappa, L234A L235A)
heavy: not shown
light: DIVMTQSPLSLPVTPGEPASISCKSSQSLLYSNGYNYLDWYLQRPGQSPQLLIYLGSNRASGVPDRFSGSGSGTDFTLKISRVEAEDVGVFYCMQALQTPLTFGGGTKVEIKRTVAAPSVFIFPPSDEQLKSGTASVVCLLNNFYPREAKVQWKVDNALQSGNSQESVTEQDSKDSTYSLSSTLTLSKADYEKHKVYACEVTHQGLSSPVTKSFNRGEC
B3: no binding (tested: about 67 nM) [5].

B4: Antibody E22 (antibody, human IgG1, kappa, L234A L235A, V domains shown)
VH: QVQLQESGPGLVKPSETLSLTCTVSGGSIRDYYWSWIRQPPGKGLEWIGFIYYNGRTFYQSSLKSRVTISLDTSKNQFSLKMTSVTAADTAVYYCARVRAYSGIGLDGTDVWGQGTTVTVSS
VL: DIVMTQSPLSLPVTPGEPASISCRSSQSLLYSTGYTYLDWYLQRPGQSPQLLIYGGSSRASGVPDRFSGSGSGTDFTLKISRVEAEDVGVFYCGQALQTPLTFGQGTKVEIKR
B4: no binding (tested: about 67 nM) [5].

B5: Antibody A (antibody, human IgG1, kappa, L234A L235A)
heavy: not shown
light: DIQMTQSPSSLSASVGDRVTITCRASQDINNYLAWFQQKPGKAPKSLIYTASSLHSGVPSKFSGSGSGTDFTLTISSLQPEDFATYYCQQYVSYPYTFGQGTKLEIKRTVAAPSVFIFPPSDEQLKSGTASVVCLLNNFYPREAKVQWKVDNALQSGNSQESVTEQDSKDSTYSLSSTLTLSKADYEKHKVYACEVTHQGLSSPVTKSFNRGEC
B5: no binding (tested: about 200 nM) [6].

B6: Antibody A (antibody, human IgG1, kappa, L234A L235A)
heavy: not shown
light: DIQMTQSPSSLSASVGDRVTITCRASQDINNYLAWFQQKPGKAPKSLIYTASSLHSGVPSKFSGSGSGTDFTLTISSLQPEDFATYYCQQYVSYPYTFGQGTKLEIKRTVAAPSVFIFPPSDEQLKSGTASVVCLLNNFYPREAKVQWKVDNALQSGNSQESVTEQDSKDSTYSLSSTLTLSKADYEKHKVYACEVTHQGLSSPVTKSFNRGEC
B6 was tested, and the Kd [7] was 78.2 nM, the Kd [8] was 64.8 nM and the binding result [9] was “no binding (tested: 100 nM)”. B6: no binding (tested: 1000 nM) [10].

B7: Antibody A10 (antibody, human IgG1, kappa, L234A L235A)
heavy: not shown
light: DIQMTQSPSSLSASVGDRVTITCRASQDINNYLAWFQQKPGKAPKSLIYTASSLHSGVPSKFSGSGSGTDFTLTISSLQPEDFATYYCQQYVSYPYTFGQGTKLEIKRTVAAPSVFIFPPSDEQLKSGTASVVCLLNNFYPREAKVQWKVDNALQSGNSQESVTEQDSKDSTYSLSSTLTLSKADYEKHKVYACEVTHQGLSSPVTKSFNRGEC
For B7, the Kd [8] was 69 nM, the binding result [9] was “no binding (tested: 100 nM)” and the binding result [10] was “no binding (tested: 1000 nM)”.

B8: Antibody A10 (antibody, human IgG1, kappa, L234A L235A)
heavy: not shown
light: DIQMTQSPSSLSASVGDRVTITCRASQDINNYLAWFQQKPGKAPKSLIYTASSLHSGVPSKFSGSGSGTDFTLTISSLQPEDFATYYCQQYVSYPYTFGQGTKLEIKRTVAAPSVFIFPPSDEQLKSGTASVVCLLNNFYPREAKVQWKVDNALQSGNSQESVTEQDSKDSTYSLSSTLTLSKADYEKHKVYACEVTHQGLSSPVTKSFNRGEC
B8: no binding (tested: about 67 nM) [11].
